{
  "source": "patent US12404607",
  "key": {"[1]": {"target": "SARS-CoV-2 spike receptor binding domain (RBD) antigen (SARS-CoV-2) (UniProt P0DTC2)", "experiment": "ELISA, coated RBD"}, "[2]": {"target": "SARS-CoV-2 spike on GFP reporter pseudotype virus (Integral Molecular) (SARS-CoV-2) (UniProt P0DTC2)", "experiment": "cell-based or functional assay"}, "[3]": {"target": "SARS-CoV-2 spike S1 antigen (SARS-CoV-2) (UniProt P0DTC2)", "experiment": "ELISA, coated S1"}, "[4]": {"target": "SARS CoV-2 Spike RBD protein of the Spike:ACE2 blocking ELISA (BPS Bioscience) (SARS-CoV-2) (UniProt P0DTC2)", "experiment": "competition ELISA: RBD coated, test article, then ACE2-His (competitor)"}, "SARS CoV RBD (SARS-CoV)": {"target": "SARS CoV RBD (SARS-CoV) (UniProt P59594)", "experiment": "ELISA, antigen coated at 2 ug/mL"}},
  "data": [
    {"substance": "SARS CoV mAb [CR3022] (Absolute Antibody)", "values": [
      {"measurement": "EC50", "setting": "[1]", "value": 0.088, "unit": "µg/mL"},
      {"measurement": "CoV-2 pseudotype neutralization IC50", "setting": "[2]", "value": 100, "unit": "µg/mL"},
      {"measurement": "EC50", "setting": "[3]", "value": 0.078, "unit": "µg/mL"}
    ]},
    {"substance": "SARS CoV-2 mAb [SAD-S35] (Acro Biosystems) (antibody)", "values": [
      {"measurement": "EC50", "setting": "[1]", "value": 0.057, "unit": "µg/mL"},
      {"measurement": "IC50", "setting": "[4]", "value": 1.1, "unit": "µg/mL"},
      {"measurement": "CoV-2 pseudotype neutralization IC50", "setting": "[2]", "value": 0.26, "unit": "µg/mL"},
      {"measurement": "EC50", "setting": "[3]", "value": 0.058, "unit": "µg/mL"}
    ]},
    {"substance": "rCIG (recombinant coronavirus-2 immune globulin; recombinant anti-coronavirus 19 hyperimmune gammaglobulin)", "values": [
      {"measurement": "EC50", "setting": "[1]", "value": 0.1, "unit": "µg/mL"},
      {"measurement": "IC50", "setting": "[4]", "value": 2.2, "unit": "µg/mL"},
      {"measurement": "CoV-2 pseudotype neutralization IC50", "setting": "[2]", "value": 0.43, "unit": "µg/mL"},
      {"measurement": "EC50", "setting": "SARS CoV RBD (SARS-CoV)", "value": 0.6, "unit": "µg/mL"},
      {"measurement": "EC50", "setting": "[3]", "value": 0.092, "unit": "µg/mL"}
    ]}
  ]
}
